Binding result and IC50 data for 4 molecules are collected here from patent US7282556 (EMORY UNIVERSITY, dated 2007).

The target in assay [1] is T1, SIRPα1-GST: extracellular domain of SIRPα1 fused to GST (UniProt P78324 31-373).
T1 construct: extracellular domain; Produced in 293E cells as in Seiffert et al; also called SIRPα-GST; SIRP-GST; not shown: glutathione S-transferase (GST)
Kind of assay: direct binding of synthetic peptide.

The target in assay [2] is T1, SIRPα1-GST: extracellular domain of …. Nature of the assay: plate binding assay, JAM-AP and SIRPα-GST.
Another assay has as its target T2, C5/D5 Fab.
T2 construct: Prepared by papain digestion of C5/D5; also called C5/D5 Fab fragment
Kind of assay: competition ELISA: C5/D5 Fab (1 µg/ml) on coated purified CD47 with increasing peptide. The method, then:
Figure 5: FIG. 5 is a graph that illustrates the effect of synthetic peptide C5/D5.1 ([…]) (SEQ. ID NO: 2) and control peptide C5/D5.4 ([…]) (SEQ. ID NO: 34), C5/D5.11 ([…]) (SEQ. ID NO: 36) and C5/D5.12 ([…]) (SEQ. ID NO: 6) on binding of C5/D5 Fab to CD47. CD47 was purified from human PMN or RBC as previously described (Liu, et al., Journal of Biological Chemistry, 277(12): 10028-36, 2002). The experiments were performed by coating microtiter plates with purified CD47 (in 1% octylglucoside containing buffer, used as 1:50 dilution) for 2 hour (hr). After blocking, C5/D5 Fab (1 µg/ml) was added without or with increasing amount of peptides. C5/D5 Fab binding was detected by a peroxidase conjugated goat anti-mouse secondary antibody. The data represent the mean and the standard deviation of triplicate wells.
To confirm that peptide C5/D5.1 simulates the natural epitope of CD47 recognized by mAb C5/D5, experiments were performed to test if this peptide can compete with CD47 in binding to C5/D5. Purified human CD47 from PMN and RBC was used to coat microtiter plates followed by incubation with C5/D5 Fab (1 μg/ml) either in the absence or presence of increasing amount C5/D5.1 or other control peptides. […] In contrast, control peptides, including C5/D5.11 (SEQ ID NO:36) and C5/D5.12 (SEQ ID NO:6) had no inhibition at concentrations up to 10 mM (FIG. 5). […]
In general terms: An ELISA detects its analyte on a solid surface through an enzyme-linked reagent.

Bridges are numbered along the chain shown (N, C = ends). Where no end group is shown, it is not given here.

T1 sequence (P78324 31-373): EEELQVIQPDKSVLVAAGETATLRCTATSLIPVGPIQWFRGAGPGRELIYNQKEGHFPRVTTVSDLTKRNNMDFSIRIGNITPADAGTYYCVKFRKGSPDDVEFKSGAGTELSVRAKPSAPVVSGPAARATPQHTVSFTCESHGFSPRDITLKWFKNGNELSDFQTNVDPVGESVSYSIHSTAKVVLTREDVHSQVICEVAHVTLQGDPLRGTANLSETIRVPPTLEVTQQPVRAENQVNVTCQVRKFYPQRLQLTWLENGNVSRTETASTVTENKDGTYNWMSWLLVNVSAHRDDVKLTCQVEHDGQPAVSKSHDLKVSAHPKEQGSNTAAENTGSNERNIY

B1: linear CD47 peptide comprising SSAKIEVSQLLK (aa82-93 of SEQ ID NO: 9) (peptide)
peptide: SSAKIEVSQLLK
For the molecule B1, in assay [1], the binding result is reported as “no binding”.

B2: JAM-AP: extracellular domain of junctional adhesion molecule (JAM) fused to alkaline phosphatase (other, UniProt Q9Y624 28-238, looked up)
chain: SVTVHSSEPEVRIPENNPVKLSCAYSGFSSPRVEWKFDQGDTTRLVCYNNKITASYEDRVTFLPTGITFKSVTREDTGTYTCMVSEEGGNSYGEVKVKLIVLVPPSKPTVNIPSSATIGNRAVLTCSEQDGSPPSEYTWFKDGIVMPTNPKSTRAFSNSSYVLNPTTGELVFDPLSASDTGEYSCEARNGYGTPMTSNAVRMEAVERNVGV
notes: extracellular domain; Control AP fusion protein; not shown: alkaline phosphatase (as in CD47-AP)
As to B2, the binding result in assay [2] is given as “no binding”.

B3: linear CD47 peptide comprising EVTELTREG (aa115-123 of SEQ ID NO: 9) (peptide)
peptide: EVTELTREG
Consider B3, for which the binding result in assay [1] is given as “no binding”.

B4: synthetic peptide C5/D5.1 (CERVIGTGWVRC) (peptide)
peptide: CERVIGTGWVRC
modifications: disulfide 1-12 (inferred)
The term IC50 denotes the concentration that gives 50% inhibition. The low end stands for higher potency, the high end for lower potency. Regarding B4, in the assay with C5/D5 Fab, the IC50 was found to be 3.8 mM.
